# Measured values from patent US20240141072A1 (published 2024).
# T1: biotinylated human DLL3 protein expressed as a human IgG1 fusion protein (human, UniProt Q9NYJ7 27-492, limits assumed, biotinylated)
# T1 sequence: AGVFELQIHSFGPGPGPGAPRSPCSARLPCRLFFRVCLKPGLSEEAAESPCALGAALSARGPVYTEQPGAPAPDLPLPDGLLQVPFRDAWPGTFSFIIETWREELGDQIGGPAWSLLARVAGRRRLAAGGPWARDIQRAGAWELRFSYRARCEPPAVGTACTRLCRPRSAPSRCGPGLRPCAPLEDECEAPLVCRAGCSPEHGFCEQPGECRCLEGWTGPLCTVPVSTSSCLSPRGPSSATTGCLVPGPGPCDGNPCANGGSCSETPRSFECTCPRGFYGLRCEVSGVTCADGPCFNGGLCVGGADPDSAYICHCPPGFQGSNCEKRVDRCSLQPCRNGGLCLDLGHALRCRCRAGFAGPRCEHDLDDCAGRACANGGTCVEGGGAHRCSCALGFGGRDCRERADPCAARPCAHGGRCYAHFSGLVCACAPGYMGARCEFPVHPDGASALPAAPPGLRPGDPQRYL
# Biological target: T1, biotinylated human DLL3 protein …
# Test: Octet BLI, single 50 nM
# How it was run: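 Read-out is binding affinity to human DLL3. Conditioned medium containing a known amount of each trispecific protein was run against the immobilised biotinylated DLL3 fusion.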
row,Binder,Kd
1,"3A06 anti-DLL3 trispecific protein (other, not shown: linker 1808, anti-albumin sdAb, linker 1808, anti-CD3 fragment, His6 1819) EVQLVESGGGLVQPGGSLTLRCAASGSKVSFLSMAWYRQAPGKKRELVAGISADGSTDYVDSVKGRFTISRDNAKNSVYLQMNSLRAEDTAVYYCYAYRWTRRYTYWGQGTLVTVSS",0.016 µM
2,"3C03 anti-DLL3 trispecific protein (other, not shown: linker 1808, anti-albumin sdAb, linker 1808, anti-CD3 fragment, His6 1819) EVQLVESGGGLVQPGGSLTLSCAASGSSVRFLSMAWYRQAPGKKRELVAGISRDGSTVYIDSVKGRFTISRDNAKNSVYLQMNSLRAEDTAVYYCYAYRWTTRGTYWGQGTLVTVSS",0.0049 µM
3,"3B010 anti-DLL3 trispecific protein (other, not shown: linker 1808, anti-albumin sdAb, linker 1808, anti-CD3 fragment, His6 1819) EVQLVESGGGLVQPGGSLTLSCAASGSSVSFLSMAWYRQAPGKKRELVAGISRDGSTDYIDSVKGRFTISRDNAKNSVYLQMNSLRAEDTAVYYCYAYRWVTRYTYWGQGTLVTVSS",0.012 µM
4,"3B05 anti-DLL3 trispecific protein (other, not shown: linker 1808, anti-albumin sdAb, linker 1808, anti-CD3 fragment, His6 1819) EVQLVESGGGLVQPGGSLTLSCVASGSSVKFLSMAWYRQAPGKKRELVAGISADGSTTYIDSVKGRFTISRDNAKNSVYLQMNSLRAEDTAVYYCYAYRWTTRRTYWGQGTLVTVSS",0.0072 µM
5,"3B01 anti-DLL3 trispecific protein (other, not shown: linker 1808, anti-albumin sdAb, linker 1808, anti-CD3 fragment, His6 1819) EVQLVESGGGLVQPGGSLTLSCAASGSSVSFLSMAWYRQAPGKKRELVAGISGDGSTDYIDSVKGRFTISRDNAKNSVYLQMNSLRAEDTAVYYCYAYRWTTRYTYWGQGTLVTVSS",0.01 µM
6,"3A08 anti-DLL3 trispecific protein (other, not shown: linker 1808, anti-albumin sdAb, linker 1808, anti-CD3 fragment, His6 1819) EVQLVESGGGLVQPGGSLTLSCAASGSSVGFLSMAWYRQAPGKKRELVAGISADGSTDYIRSVKGRFTISRDNAKNSVYLQMNSLRAEDTAVYYCYAYRWRTRYTYWGQGTLVTVSS",0.012 µM
7,"3A010 anti-DLL3 trispecific protein (other, not shown: linker 1808, anti-albumin sdAb, linker 1808, anti-CD3 fragment, His6 1819) EVQLVESGGGLVQPGGSLTLSCAASGSRVSFLSMAWYRQAPGKKRELVAGISADGSTLYIDSVKGRFTISRDNAKNSVYLQMNSLRAEDTAVYYCYAYRWTTRRTYWGQGTLVTVSS",0.012 µM
8,"3B06 anti-DLL3 trispecific protein (other, not shown: linker 1808, anti-albumin sdAb, linker 1808, anti-CD3 fragment, His6 1819) EVQLVESGGGLVQPGGSLTLSCAASGKSVSFLSMAWYRQAPGKKRELVAGISKDGSTDYIDSVKGRFTISRDNAKNSVYLQMNSLRAEDTAVYYCYAYRWTTRYTYWGQGTLVTVSS",0.015 µM
9,"3A09 anti-DLL3 trispecific protein (other, not shown: linker 1808, anti-albumin sdAb, linker 1808, anti-CD3 fragment, His6 1819) EVQLVESGGGLVQPGGSLTLSCAASGSSVSFLSMAWYRQAPGKKRELVAGISADGSVDYIDSVKGRFTISRDNAKNSVYLQMNSLRAEDTAVYYCYAYRWTTRYIYWGQGTLVTVSS",0.0063 µM
10,"3B04 anti-DLL3 trispecific protein (other, not shown: linker 1808, anti-albumin sdAb, linker 1808, anti-CD3 fragment, His6 1819) EVQLVESGGGLVQPGGSLTLSCAASGSNVSFLSMAWYRQAPGKKRELVAGISARGSTDYIDSVKGRFTISRDNAKNSVYLQMNSLRAEDTAVYYCYAYHWTTRYTYWGQGTLVTVSS",0.024 µM
11,"3B07 anti-DLL3 trispecific protein (other, not shown: linker 1808, anti-albumin sdAb, linker 1808, anti-CD3 fragment, His6 1819) EVQLVESGGGLVQPGGSLTLSCAASGSRVSFLSMAWYRQAPGKKRELVAGISADGSTTYIDSVKGRFTISRDNAKNSVYLQMNSLRAEDTAVYYCYAYRWTTRYTYWGQGTLVTVSS",0.0073 µM
12,"3C01 anti-DLL3 trispecific protein (other, not shown: linker 1808, anti-albumin sdAb, linker 1808, anti-CD3 fragment, His6 1819) EVQLVESGGGLVQPGGSLTLSCAASGSSVRFLSMAWYRQAPGKKRELVAGISAHGSTDYIDSVKGRFTISRDNAKNSVYLQMNSLRAEDTAVYYCYAYRWSTRYTYWGQGTLVTVSS",0.014 µM
13,"3B011 anti-DLL3 trispecific protein (other, not shown: linker 1808, anti-albumin sdAb, linker 1808, anti-CD3 fragment, His6 1819) EVQLVESGGGLVQPGGSLTLSCAASGSSVSFLSMAWYRQAPGKKRELVAGISADGSADYIDSVKGRFTISRDNAKNSVYLQMNSLRAEDTAVYYCYAYRWVTRYTYWGQGTLVTVSS",0.009 µM
14,"3C02 anti-DLL3 trispecific protein (other, not shown: linker 1808, anti-albumin sdAb, linker 1808, anti-CD3 fragment, His6 1819) EVQLVESGGGLVQPGGSLTLSCAASGSSVRFLSMAWYRQAPGKKRELVAGISADGSTIYIDSVKGRFTISRDNAKNSVYLQMNSLRAEDTAVYYCYAYRWRTRYTYWGQGTLVTVSS",0.0091 µM
15,"3B02 anti-DLL3 trispecific protein (other, not shown: linker 1808, anti-albumin sdAb, linker 1808, anti-CD3 fragment, His6 1819) EVQLVESGGGLVQPGGSLTLSCAASGSSVQFLSMAWYRQAPGKKRELVAGISADGSTDYINSVKGRFTISRDNAKNSVYLQMNSLRAEDTAVYYCYAYRWRTRYTYWGQGTLVTVSS",0.012 µM
16,"3B09 anti-DLL3 trispecific protein (other, not shown: linker 1808, anti-albumin sdAb, linker 1808, anti-CD3 fragment, His6 1819) EVQLVESGGGLVQPGGSLTLSCAASGSHVSFLSMAWYRQAPGKKRELVAGISANGSTDYIDSVKGRFTISRDNAKNSVYLQMNSLRAEDTAVYYCYAYRWTTRYAYWGQGTLVTVSS",0.02 µM

# The remaining lines, values ahead:
row,Kd,Binder
1,0.0082 µM,"3C05 anti-DLL3 trispecific protein (other, not shown: linker 1808, anti-albumin sdAb, linker 1808, anti-CD3 fragment, His6 1819) EVQLVESGGGLVQPGGSLTLSCVASGTSVSFLSMAWYRQAPGKKRELVAGISADGSTTYIDSVKGRFTISRDNAKNSVYLQMNSLRAEDTAVYYCYAYRWTTRRTYWGQGTLVTVSS"
2,0.0059 µM,"3C08 anti-DLL3 trispecific protein (other, not shown: linker 1808, anti-albumin sdAb, linker 1808, anti-CD3 fragment, His6 1819) EVQLVESGGGLVQPGGSLTLSCAASGSSVKFLSMAWYRQAPGKKRELVAGISLDGSTDYIDSVKGRFTISRDNAKNSVYLQMNSLRAEDTAVYYCYAYRWTGRYTYWGQGTLVTVSS"
3,0.014 µM,"3C011 anti-DLL3 trispecific protein (other, not shown: linker 1808, anti-albumin sdAb, linker 1808, anti-CD3 fragment, His6 1819) EVQLVESGGGLVQPGGSLTLSCAASGSSVRFLSMAWYRQAPGKKRELVAGISAHGSTDYIDSVKGRFTISRDNAKNSVYLQMNSLRAEDTAVYYCYAYRWRTRYTYWGQGTLVTVSS"
4,0.01 µM,"3C06 anti-DLL3 trispecific protein (other, not shown: linker 1808, anti-albumin sdAb, linker 1808, anti-CD3 fragment, His6 1819) EVQLVESGGGLVQPGGSLTLSCAASGTSVSFLSIAWYRQAPGKKRELVAGISADGSTDYIASVKGRFTISRDNAKNSVYLQMNSLRAEDTAVYYCYAYRWRTRYTYWGQGTLVTVSS"
5,0.0078 µM,"3C09 anti-DLL3 trispecific protein (other, not shown: linker 1808, anti-albumin sdAb, linker 1808, anti-CD3 fragment, His6 1819) EVQLVESGGGLVQPGGSLTLSCAASGSSVSFLSMAWYRQAPGKKRELVAGISADGSTIYIDSVKGRFTISRDNAKNSVYLQMNSLRAEDTAVYYCYAYRWRTRYTYWGQGTLVTVSS"
6,0.011 µM,"3D03 anti-DLL3 trispecific protein (other, not shown: linker 1808, anti-albumin sdAb, linker 1808, anti-CD3 fragment, His6 1819) EVQLVESGGGLVQPGGSLTLSCAASGSSVVFLSMAWYRQAPGKKRELVAGISADGSMDYIDSVKGRFTISRDNAKNSVYLQMNSLRAEDTAVYYCYAYRWRTRYTYWGQGTLVTVSS"
7,0.01 µM,"3D01 anti-DLL3 trispecific protein (other, not shown: linker 1808, anti-albumin sdAb, linker 1808, anti-CD3 fragment, His6 1819) EVQLVESGGGLVQPGGSLTLSCAASGSSVSFLSMAWYRQAPGKKRELVAGISRDGSTDYIDSVKGRFTISRDNAKNSVYLQMNSLRAEDTAVYYCYAYRWITRYTYWGQGTLVTVSS"
8,0.016 µM,"3D05 anti-DLL3 trispecific protein (other, not shown: linker 1808, anti-albumin sdAb, linker 1808, anti-CD3 fragment, His6 1819) EVQLVESGGGLVQPGGSLTLSCAASGSSVRFLSMAWYRQAPGKKRELVAGISADGSTDYIDSVKGRFTISRDNAKNSVYLQMNSLRAEDTAVYYCYAYRWTRRYTYWGQGTLVTVSS"
9,0.012 µM,"3D02 anti-DLL3 trispecific protein (other, not shown: linker 1808, anti-albumin sdAb, linker 1808, anti-CD3 fragment, His6 1819) EVQLVESGGGLVQPGGSLTLSCAASGSSVRFLSMAWYRQAPGKKRELVAGISRDGSTDYIDSVKGRFTISRDNAKNSVYLQMNSLRAEDTAVYYCYAYRWITRYTYWGQGTLVTVSS"
